Measured values taken from PMC9234707.

Key:
[1] = molecular target: BMP10 (human (by the printed accession)) (UniProt O95393)
[2] = molecular target: activin B (human (by the printed accession)) (UniProt P09529)
[3] = molecular target: BMPR2 GBD-Fc (WT) (human) (UniProt Q13873); test: SPR; BIAcore 3000; receptor-Fc (about 500 RU BMPR2-Fc WT or variants, 150 RU ACVR2A-Fc) captured on immobilised anti-human IgG (Fc), CM5 chip; single injections of 80 nM GF, single curve fits, averages of two independent injections; 25 °C; HBS/EPS (0.01 M Hepes, 0.5 M NaCl, 3 mM EDTA, 0.005% Tween 20, pH 7.4) with 0.1% bovine serum albumin; 50 μl/min; 1:1 binding model, KD = kd/ka
[4] = molecular target: BMP10 (human (by the printed accession)) (UniProt O95393); remark: listed apart in the source
[5] = molecular target: ACVR2A GBD-Fc (human) (UniProt P27037); test: SPR; BIAcore 3000; receptor-Fc (about 500 RU BMPR2-Fc WT or variants, 150 RU ACVR2A-Fc) captured on immobilised anti-human IgG (Fc), CM5 chip; single injections of 80 nM GF, single curve fits, averages of two independent injections; 25 °C; HBS/EPS (0.01 M Hepes, 0.5 M NaCl, 3 mM EDTA, 0.005% Tween 20, pH 7.4) with 0.1% bovine serum albumin; 50 μl/min; 1:1 binding model, KD = kd/ka
[6] = molecular target: ACVR2A GBD-Fc (human) (UniProt P27037); test: SPR; BIAcore 3000; receptor-Fc captured on immobilised anti-human IgG (Fc), CM5 chip; titration, global fit of 2.5, 5.0, 10.0, 20.0 and 40.0 nM GF injections; 25 °C; HBS/EPS (0.01 M Hepes, 0.5 M NaCl, 3 mM EDTA, 0.005% Tween 20, pH 7.4) with 0.1% bovine serum albumin; 50 μl/min; 1:1 binding model, KD = kd/ka

Sequence of ACVR2A GBD-Fc (human) (P27037 whole entry): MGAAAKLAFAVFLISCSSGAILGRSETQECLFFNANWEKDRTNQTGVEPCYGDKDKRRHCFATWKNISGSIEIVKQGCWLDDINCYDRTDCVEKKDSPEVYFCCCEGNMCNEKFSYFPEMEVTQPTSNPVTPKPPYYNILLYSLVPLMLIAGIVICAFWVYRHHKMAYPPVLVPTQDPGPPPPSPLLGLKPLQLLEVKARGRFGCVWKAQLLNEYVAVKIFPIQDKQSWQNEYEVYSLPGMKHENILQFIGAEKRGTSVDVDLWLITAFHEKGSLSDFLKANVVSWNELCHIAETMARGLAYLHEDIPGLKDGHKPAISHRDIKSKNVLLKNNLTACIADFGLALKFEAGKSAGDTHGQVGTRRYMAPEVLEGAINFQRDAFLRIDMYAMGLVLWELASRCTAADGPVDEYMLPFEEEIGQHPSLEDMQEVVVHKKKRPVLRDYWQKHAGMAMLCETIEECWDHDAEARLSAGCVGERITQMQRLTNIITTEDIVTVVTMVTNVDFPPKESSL
Sequence of BMPR2 GBD-Fc (WT) (human) (Q13873 whole entry): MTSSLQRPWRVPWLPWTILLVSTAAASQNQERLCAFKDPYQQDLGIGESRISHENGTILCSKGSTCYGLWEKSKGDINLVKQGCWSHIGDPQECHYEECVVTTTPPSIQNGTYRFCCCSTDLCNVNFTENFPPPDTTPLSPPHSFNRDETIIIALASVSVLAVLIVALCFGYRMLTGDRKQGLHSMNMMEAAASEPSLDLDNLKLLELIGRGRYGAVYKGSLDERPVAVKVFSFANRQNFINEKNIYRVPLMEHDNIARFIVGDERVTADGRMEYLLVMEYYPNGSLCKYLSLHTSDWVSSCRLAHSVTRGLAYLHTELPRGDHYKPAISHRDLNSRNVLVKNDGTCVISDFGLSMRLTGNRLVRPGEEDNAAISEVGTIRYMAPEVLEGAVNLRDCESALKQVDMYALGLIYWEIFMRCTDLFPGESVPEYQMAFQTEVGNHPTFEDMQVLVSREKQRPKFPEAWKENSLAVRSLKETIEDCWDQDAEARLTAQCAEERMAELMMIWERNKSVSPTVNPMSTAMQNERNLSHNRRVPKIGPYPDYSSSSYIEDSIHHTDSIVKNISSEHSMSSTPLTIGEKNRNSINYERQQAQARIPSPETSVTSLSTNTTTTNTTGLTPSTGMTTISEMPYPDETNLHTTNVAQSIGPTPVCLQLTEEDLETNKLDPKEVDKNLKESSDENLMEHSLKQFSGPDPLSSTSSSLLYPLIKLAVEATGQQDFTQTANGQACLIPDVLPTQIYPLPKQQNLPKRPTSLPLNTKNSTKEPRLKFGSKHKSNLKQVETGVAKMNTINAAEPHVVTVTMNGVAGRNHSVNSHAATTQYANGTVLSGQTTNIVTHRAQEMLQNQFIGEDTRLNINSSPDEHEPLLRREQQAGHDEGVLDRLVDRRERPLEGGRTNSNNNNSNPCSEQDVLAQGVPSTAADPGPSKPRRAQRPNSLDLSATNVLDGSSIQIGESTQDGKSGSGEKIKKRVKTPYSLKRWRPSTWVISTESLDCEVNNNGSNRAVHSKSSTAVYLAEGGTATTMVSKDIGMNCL
Sequence of BMP7 (P18075 293-431): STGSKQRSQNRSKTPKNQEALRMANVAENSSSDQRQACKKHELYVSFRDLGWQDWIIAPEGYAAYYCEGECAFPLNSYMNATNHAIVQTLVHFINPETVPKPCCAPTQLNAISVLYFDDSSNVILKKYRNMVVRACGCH
Sequence of BMP10 (human (by the printed accession)) (O95393 317-424): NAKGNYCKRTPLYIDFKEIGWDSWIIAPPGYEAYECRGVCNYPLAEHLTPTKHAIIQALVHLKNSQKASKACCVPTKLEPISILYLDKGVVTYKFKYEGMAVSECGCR
Sequence of activin B (human (by the printed accession)) (P09529 293-407): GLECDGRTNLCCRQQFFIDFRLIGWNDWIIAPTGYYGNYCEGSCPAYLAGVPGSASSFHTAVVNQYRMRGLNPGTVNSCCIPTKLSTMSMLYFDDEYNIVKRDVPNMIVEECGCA

Substance “ACVR2A GBD-Fc (from UniProt P27037 20-120) (Fc fusion)” has an IC50 of inhibition of signalling by 5 nM BMP10 in stably transfected HEK293 BRE (SMAD1/5/8) luciferase reporter cells, 0-400 nM receptor-Fc [1] of 187 nM and an IC50 of inhibition of signalling by 5 nM activin B in stably transfected HEK293 SBE (SMAD2/3) luciferase reporter cells, 0-400 nM receptor-Fc [2] of 14 nM.

Substance “BMP7 (from UniProt P18075 293-431) (ligand)” has a Kd [3] of 13 nM, a koff [3] of 0.0071 s⁻¹ and a kon [3] of 520000 M⁻¹ s⁻¹.

In the case of “BMPR2 GBD-Fc (WT) (from UniProt Q13873 27-138) (Fc fusion)”, the IC50 of inhibition of signalling by 5 nM BMP10 in stably transfected HEK293 BRE (SMAD1/5/8) luciferase reporter cells, 0-400 nM receptor-Fc [1] is reported as 35 nM.

In the case of “BMPR2-Fc variant G47D (from UniProt Q13873 27-138) (Fc fusion)”, the IC50 of inhibition of signalling by 5 nM BMP10 in stably transfected HEK293 reporter cells [4] is reported as 10 nM.

With “BMPR2-Fc variant Q42R (from UniProt Q13873 27-138) (Fc fusion)” the IC50 of inhibition of signalling by 5 nM BMP10 in stably transfected HEK293 reporter cells [4] was 54 nM.

“BMPR2-Fc variant Q92H (from UniProt Q13873 27-138) (Fc fusion)” was tested, and the IC50 of inhibition of signalling by 5 nM BMP10 in stably transfected HEK293 reporter cells [4] was 10 nM.

With “BMPR2-Fc variant S107P (from UniProt Q13873 27-138) (Fc fusion)” the IC50 of inhibition of signalling by 5 nM BMP10 in stably transfected HEK293 reporter cells [4] was 7 nM.

Substance “activin A (from UniProt P08476 311-426) (ligand)” has a Kd [5] of 0.09 nM, a koff [5] of 0.00019 s⁻¹ and a kon [5] of 2.1e+06 M⁻¹ s⁻¹. For the same substance, the Kd [3] was 9.6 nM, the koff [3] was 0.0036 s⁻¹ and the kon [3] was 370000 M⁻¹ s⁻¹. For the same substance, the Kd [6] was 0.018 nM, the koff [6] was 1.2e-05 s⁻¹ and the kon [6] was 600000 M⁻¹ s⁻¹.
